# Data from patent US20170355766A1 (Xencor, published 2017).
# T1: human FcγRIIb receptor protein (R&D Systems) (human, UniProt P31994 46-217)
# T1 construct: Analyte injected over antibodies captured on a protein A/G chip (Biacore); also called CD32b
# T1 sequence (looked up): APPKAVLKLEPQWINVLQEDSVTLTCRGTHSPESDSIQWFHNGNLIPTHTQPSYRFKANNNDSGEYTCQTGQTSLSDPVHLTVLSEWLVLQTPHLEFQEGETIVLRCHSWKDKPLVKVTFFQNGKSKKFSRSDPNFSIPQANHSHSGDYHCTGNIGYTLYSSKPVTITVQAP
# Molecular target: T1, human FcγRIIb receptor protein (R&D …)
# Assay: SPR (Biacore)
# Procedure: Variants were screened for receptor affinity using Biacore™ technology, also referred to as Biacore herein, a surface plasmon resonance (SPR) based technology for studying biomolecular interactions in real time. SPR measurements were performed using a Biacore 3000 instrument (Biacore, Piscataway, N.J.). A protein A/G (Pierce Biotechnology) CM5 biosensor chip (Biacore) was generated using a standard primary amine coupling protocol. All measurements were performed using HBS-EP buffer (10 mM HEPES pH 7.4, 0.15 M NaCl, 3 mM EDTA, 0.005% vol/vol surfactant P20, Biacore). Antibodies at 20 nM or 50 nM in HBS-EP buffer were immobilized on the protein A/G surface and FcγRs were injected. After each cycle, the surface was regenerated by injecting glycine buffer (10 mM, pH 1.5). Data were processed by zeroing time and response before the injection of FcγR and by subtracting appropriate nonspecific signals (response of reference channel and injection of running buffer). Kinetic analyses were performed by global fitting of binding data with a 1:1 Langmuir binding model using BIAevaluation software (Biacore).
Binder,Fold FcγRIIb,binding result
"A327D/L328Y/I332E (antibody, human IgG1, kappa, HuAM4G7 IgG1 Fc variant) heavy: EVQLVESGGGLVKPGGSLKLSCAASGYTFTSYVMHWVRQAPGKGLEWIGYINPYNDGTKYNEKFQGRVTISSDKSISTAYMELSSLRSEDTAMYYCARGTYYYGTRVFDYWGQGTLVTVSSASTKGPSVFPLAPSSKSTSGGTAALGCLVKDYFPEPVTVSWNSGALTSGVHTFPAVLQSSGLYSLSSVVTVPSSSLGTQTYICNVNHKPSNTKVDKKVEPKSCDKTHTCPPCPAPELLGGPSVFLFPPKPKDTLMISRTPEVTCVVVDVSHEDPEVKFNWYVDGVEVHNAKTKPREEQYNSTYRVVSVLTVLHQDWLNGKEYKCKVSNKDYPAPEEKTISKAKGQPREPQVYTLPPSREEMTKNQVSLTCLVKGFYPSDIAVEWESNGQPENNYKTTPPVLDSDGSFFLYSKLTVDKSRWQQGNVFSCSVMHEALHNHYTQKSLSLSPGK light: DIVMTQSPATLSLSPGERATLSCRSSKSLQNVNGNTYLYWFQQKPGQSPQLLIYRMSNLNSGVPDRFSGSGSGTEFTLTISSLEPEDFAVYYCMQHLEYPITFGAGTKLEIKRTVAAPSVFIFPPSDEQLKSGTASVVCLLNNFYPREAKVQWKVDNALQSGNSQESVTEQDSKDSTYSLSSTLTLSKADYEKHKVYACEVTHQGLSSPVTKSFNRGEC",2.31 fold,
"G236L (antibody, human IgG1, kappa, HuAM4G7 IgG1 Fc variant) heavy: not shown light: DIVMTQSPATLSLSPGERATLSCRSSKSLQNVNGNTYLYWFQQKPGQSPQLLIYRMSNLNSGVPDRFSGSGSGTEFTLTISSLEPEDFAVYYCMQHLEYPITFGAGTKLEIKRTVAAPSVFIFPPSDEQLKSGTASVVCLLNNFYPREAKVQWKVDNALQSGNSQESVTEQDSKDSTYSLSSTLTLSKADYEKHKVYACEVTHQGLSSPVTKSFNRGEC",,no binding
"H268D/A327D (antibody, human IgG1, kappa, HuAM4G7 IgG1 Fc variant) heavy: not shown light: DIVMTQSPATLSLSPGERATLSCRSSKSLQNVNGNTYLYWFQQKPGQSPQLLIYRMSNLNSGVPDRFSGSGSGTEFTLTISSLEPEDFAVYYCMQHLEYPITFGAGTKLEIKRTVAAPSVFIFPPSDEQLKSGTASVVCLLNNFYPREAKVQWKVDNALQSGNSQESVTEQDSKDSTYSLSSTLTLSKADYEKHKVYACEVTHQGLSSPVTKSFNRGEC",7.68 fold,
"G236D/H268D (antibody, human IgG1, kappa, HuAM4G7 IgG1 Fc variant) heavy: not shown light: DIVMTQSPATLSLSPGERATLSCRSSKSLQNVNGNTYLYWFQQKPGQSPQLLIYRMSNLNSGVPDRFSGSGSGTEFTLTISSLEPEDFAVYYCMQHLEYPITFGAGTKLEIKRTVAAPSVFIFPPSDEQLKSGTASVVCLLNNFYPREAKVQWKVDNALQSGNSQESVTEQDSKDSTYSLSSTLTLSKADYEKHKVYACEVTHQGLSSPVTKSFNRGEC",11.6 fold,
"A330S (antibody, human IgG1, kappa, HuAM4G7 IgG1 Fc variant) heavy: not shown light: DIVMTQSPATLSLSPGERATLSCRSSKSLQNVNGNTYLYWFQQKPGQSPQLLIYRMSNLNSGVPDRFSGSGSGTEFTLTISSLEPEDFAVYYCMQHLEYPITFGAGTKLEIKRTVAAPSVFIFPPSDEQLKSGTASVVCLLNNFYPREAKVQWKVDNALQSGNSQESVTEQDSKDSTYSLSSTLTLSKADYEKHKVYACEVTHQGLSSPVTKSFNRGEC",0.0635 fold,
"A330H (antibody, human IgG1, kappa, HuAM4G7 IgG1 Fc variant) heavy: not shown light: DIVMTQSPATLSLSPGERATLSCRSSKSLQNVNGNTYLYWFQQKPGQSPQLLIYRMSNLNSGVPDRFSGSGSGTEFTLTISSLEPEDFAVYYCMQHLEYPITFGAGTKLEIKRTVAAPSVFIFPPSDEQLKSGTASVVCLLNNFYPREAKVQWKVDNALQSGNSQESVTEQDSKDSTYSLSSTLTLSKADYEKHKVYACEVTHQGLSSPVTKSFNRGEC",,no binding
"A327L (antibody, human IgG1, kappa, HuAM4G7 IgG1 Fc variant) heavy: not shown light: DIVMTQSPATLSLSPGERATLSCRSSKSLQNVNGNTYLYWFQQKPGQSPQLLIYRMSNLNSGVPDRFSGSGSGTEFTLTISSLEPEDFAVYYCMQHLEYPITFGAGTKLEIKRTVAAPSVFIFPPSDEQLKSGTASVVCLLNNFYPREAKVQWKVDNALQSGNSQESVTEQDSKDSTYSLSSTLTLSKADYEKHKVYACEVTHQGLSSPVTKSFNRGEC",,no binding
"G236S/G237A (antibody, human IgG1, kappa, HuAM4G7 IgG1 Fc variant) heavy: not shown light: DIVMTQSPATLSLSPGERATLSCRSSKSLQNVNGNTYLYWFQQKPGQSPQLLIYRMSNLNSGVPDRFSGSGSGTEFTLTISSLEPEDFAVYYCMQHLEYPITFGAGTKLEIKRTVAAPSVFIFPPSDEQLKSGTASVVCLLNNFYPREAKVQWKVDNALQSGNSQESVTEQDSKDSTYSLSSTLTLSKADYEKHKVYACEVTHQGLSSPVTKSFNRGEC",0.0797 fold,
"G236A/G237A (antibody, human IgG1, kappa, HuAM4G7 IgG1 Fc variant) heavy: not shown light: DIVMTQSPATLSLSPGERATLSCRSSKSLQNVNGNTYLYWFQQKPGQSPQLLIYRMSNLNSGVPDRFSGSGSGTEFTLTISSLEPEDFAVYYCMQHLEYPITFGAGTKLEIKRTVAAPSVFIFPPSDEQLKSGTASVVCLLNNFYPREAKVQWKVDNALQSGNSQESVTEQDSKDSTYSLSSTLTLSKADYEKHKVYACEVTHQGLSSPVTKSFNRGEC",0.0578 fold,
"G236Y (antibody, human IgG1, kappa, HuAM4G7 IgG1 Fc variant) heavy: not shown light: DIVMTQSPATLSLSPGERATLSCRSSKSLQNVNGNTYLYWFQQKPGQSPQLLIYRMSNLNSGVPDRFSGSGSGTEFTLTISSLEPEDFAVYYCMQHLEYPITFGAGTKLEIKRTVAAPSVFIFPPSDEQLKSGTASVVCLLNNFYPREAKVQWKVDNALQSGNSQESVTEQDSKDSTYSLSSTLTLSKADYEKHKVYACEVTHQGLSSPVTKSFNRGEC",,no binding
"G236I (antibody, human IgG1, kappa, HuAM4G7 IgG1 Fc variant) heavy: not shown light: DIVMTQSPATLSLSPGERATLSCRSSKSLQNVNGNTYLYWFQQKPGQSPQLLIYRMSNLNSGVPDRFSGSGSGTEFTLTISSLEPEDFAVYYCMQHLEYPITFGAGTKLEIKRTVAAPSVFIFPPSDEQLKSGTASVVCLLNNFYPREAKVQWKVDNALQSGNSQESVTEQDSKDSTYSLSSTLTLSKADYEKHKVYACEVTHQGLSSPVTKSFNRGEC",,no binding
"H268D/A327D/L328Y (antibody, human IgG1, kappa, HuAM4G7 IgG1 Fc variant) heavy: EVQLVESGGGLVKPGGSLKLSCAASGYTFTSYVMHWVRQAPGKGLEWIGYINPYNDGTKYNEKFQGRVTISSDKSISTAYMELSSLRSEDTAMYYCARGTYYYGTRVFDYWGQGTLVTVSSASTKGPSVFPLAPSSKSTSGGTAALGCLVKDYFPEPVTVSWNSGALTSGVHTFPAVLQSSGLYSLSSVVTVPSSSLGTQTYICNVNHKPSNTKVDKKVEPKSCDKTHTCPPCPAPELLGGPSVFLFPPKPKDTLMISRTPEVTCVVVDVSDEDPEVKFNWYVDGVEVHNAKTKPREEQYNSTYRVVSVLTVLHQDWLNGKEYKCKVSNKDYPAPIEKTISKAKGQPREPQVYTLPPSREEMTKNQVSLTCLVKGFYPSDIAVEWESNGQPENNYKTTPPVLDSDGSFFLYSKLTVDKSRWQQGNVFSCSVMHEALHNHYTQKSLSLSPGK light: DIVMTQSPATLSLSPGERATLSCRSSKSLQNVNGNTYLYWFQQKPGQSPQLLIYRMSNLNSGVPDRFSGSGSGTEFTLTISSLEPEDFAVYYCMQHLEYPITFGAGTKLEIKRTVAAPSVFIFPPSDEQLKSGTASVVCLLNNFYPREAKVQWKVDNALQSGNSQESVTEQDSKDSTYSLSSTLTLSKADYEKHKVYACEVTHQGLSSPVTKSFNRGEC",3.49 fold,
"A330D (antibody, human IgG1, kappa, HuAM4G7 IgG1 Fc variant) heavy: not shown light: DIVMTQSPATLSLSPGERATLSCRSSKSLQNVNGNTYLYWFQQKPGQSPQLLIYRMSNLNSGVPDRFSGSGSGTEFTLTISSLEPEDFAVYYCMQHLEYPITFGAGTKLEIKRTVAAPSVFIFPPSDEQLKSGTASVVCLLNNFYPREAKVQWKVDNALQSGNSQESVTEQDSKDSTYSLSSTLTLSKADYEKHKVYACEVTHQGLSSPVTKSFNRGEC",,no binding
"G237H (antibody, human IgG1, kappa, HuAM4G7 IgG1 Fc variant) heavy: not shown light: DIVMTQSPATLSLSPGERATLSCRSSKSLQNVNGNTYLYWFQQKPGQSPQLLIYRMSNLNSGVPDRFSGSGSGTEFTLTISSLEPEDFAVYYCMQHLEYPITFGAGTKLEIKRTVAAPSVFIFPPSDEQLKSGTASVVCLLNNFYPREAKVQWKVDNALQSGNSQESVTEQDSKDSTYSLSSTLTLSKADYEKHKVYACEVTHQGLSSPVTKSFNRGEC",,no binding
"A330K (antibody, human IgG1, kappa, HuAM4G7 IgG1 Fc variant) heavy: not shown light: DIVMTQSPATLSLSPGERATLSCRSSKSLQNVNGNTYLYWFQQKPGQSPQLLIYRMSNLNSGVPDRFSGSGSGTEFTLTISSLEPEDFAVYYCMQHLEYPITFGAGTKLEIKRTVAAPSVFIFPPSDEQLKSGTASVVCLLNNFYPREAKVQWKVDNALQSGNSQESVTEQDSKDSTYSLSSTLTLSKADYEKHKVYACEVTHQGLSSPVTKSFNRGEC",1.55 fold,
"G237L (antibody, human IgG1, kappa, HuAM4G7 IgG1 Fc variant) heavy: not shown light: DIVMTQSPATLSLSPGERATLSCRSSKSLQNVNGNTYLYWFQQKPGQSPQLLIYRMSNLNSGVPDRFSGSGSGTEFTLTISSLEPEDFAVYYCMQHLEYPITFGAGTKLEIKRTVAAPSVFIFPPSDEQLKSGTASVVCLLNNFYPREAKVQWKVDNALQSGNSQESVTEQDSKDSTYSLSSTLTLSKADYEKHKVYACEVTHQGLSSPVTKSFNRGEC",,no binding
